Reference: patent publication US20250135048A1, “Fibroblast activation protein compound or salt with albumin dual-binding function” (National Atomic Research Institute, priority 2023, published 2025)

Experiments:
[1] = nanoSPECT/CT imaging biodistribution in blood of heart of HEK-293-FAP tumor-bearing mice; details: BALB/c nude mice, nanoSPECT/CT semi-quantification
Description: (§1) The HEK-293 human embryonic kidney cancer cells expressing FAP (HEK-293-FAP cells) are inoculated with 4×10^6 cells at the forward right flanks of BALB/c nude mice. […] These drugs are prepared to about 100 μL volume in normal saline. The nanoSPECT/CT imaging is performed at 1, 4, and 24 h after the intravenously administrated via tail vein.
(§2) The nanoSPECT/CT imaging is performed at 1, 4, and 24 h after administration to monitor the distribution of radiopharmaceuticals in the animal. The images are semi-quantification by using imaging analysis software. The SPECT count value of reference source is obtained by using imaging analysis software. […] The SPECT count value is obtained from region of image of each target organ, and obtained the activity/volume of each target organ by using the conversion formula.

[2] = test system: HEK-293 human embryonic kidney cancer cells expressing FAP (HEK-293-FAP cells) tumor; test: nanoSPECT/CT imaging biodistribution in tumor of HEK-293-FAP tumor-bearing mice; details: BALB/c nude mice, nanoSPECT/CT semi-quantification
Description: as §1, §2

[3] = 1 h after intravenous administration via tail vein
[4] = 4 h after intravenous administration via tail vein
[5] = 24 h after intravenous administration via tail vein

Structure (SMILES)	Blood of heart biodistribution value [1, 3] [% ID/mL]	Blood of heart biodistribution value [1, 4] [% ID/mL]	Blood of heart biodistribution value [1, 5] [% ID/mL]	Tumor biodistribution value [2, 3] [% ID/mL]	Tumor biodistribution value [2, 4] [% ID/mL]	Tumor biodistribution value [2, 5] [% ID/mL]
CN(CCCN1CCN(C(=O)[C@H](COCCNC(=O)CCCc2ccc(I)cc2)NC(=O)[C@H](CCCCSC2CC(=O)N(CCC(=O)N[C@@H](CCCCN)C(=O)N[C@@H](CCCCN)C(=O)N[C@@H](CCCCN)C(=O)N[C@@H](CCCCN)C(=O)N[C@@H](CCCCN)C(=O)N[C@@H](CCCCN)C(=O)N[C@@H](CCCCN)C(=O)N[C@@H](CCCCN)C(=O)O)C2=O)NC(=O)CNC(=O)CN2CCN(CC(=O)O)CCN(CC(=O)O)CCN(CC(=O)O)CC2)CC1)c1ccc2nccc(C(=O)NCC(=O)N3CC(F)(F)C[C@H]3C#N)c2c1 (stereo partly drawn) [Lu-177-INER-FAPI-1.12, metal not drawn]	16.19	13.33	5.50	4.71	5.08	4.21
CN(CCCN1CCN(C(=O)[C@H](COCCNC(=O)CCCc2ccc(I)cc2)NC(=O)[C@H](CCCCSC2CC(=O)N(CCC(=O)N[C@@H](CCCCN)C(=O)N[C@@H](CCCCN)C(=O)N[C@@H](CCCCN)C(=O)N[C@@H](CCCCN)C(=O)N[C@@H](CCCCN)C(=O)N[C@@H](CCCCN)C(=O)N[C@@H](CCCCN)C(=O)N[C@@H](CCCCN)C(=O)N[C@@H](CCCCN)C(=O)N[C@@H](CCCCN)C(=O)N[C@@H](CCCCN)C(=O)N[C@@H](CCCCN)C(=O)O)C2=O)NC(=O)CNC(=O)CN2CCN(CC(=O)O)CCN(CC(=O)O)CCN(CC(=O)O)CC2)CC1)c1ccc2nccc(C(=O)NCC(=O)N3CC(F)(F)C[C@H]3C#N)c2c1 (stereo partly drawn) [Lu-177-INER-FAPI-1.13, metal not drawn]	15.70	12.33	5.44	8.03	8.54	5.44
CN(CCCN1CCN(C(=O)[C@H](COCCNC(=O)CCCc2ccc(I)cc2)NC(=O)[C@H](CCCCSC2CC(=O)N(CCC(=O)N[C@@H](CCCNC(=N)N)C(=O)N[C@@H](CCCNC(=N)N)C(=O)N[C@@H](CCCNC(=N)N)C(=O)N[C@@H](CCCNC(=N)N)C(=O)N[C@@H](CCCNC(=N)N)C(=O)N[C@@H](CCCNC(=N)N)C(=O)N[C@@H](CCCNC(=N)N)C(=O)N[C@@H](CCCNC(=N)N)C(=O)N[C@@H](CCCNC(=N)N)C(=O)N[C@@H](CCCNC(=N)N)C(=O)N[C@@H](CCCNC(=N)N)C(=O)N[C@@H](CCCNC(=N)N)C(=O)O)C2=O)NC(=O)CNC(=O)CN2CCN(CC(=O)O)CCN(CC(=O)O)CCN(CC(=O)O)CC2)CC1)c1ccc2nccc(C(=O)NCC(=O)N3CC(F)(F)C[C@H]3C#N)c2c1 (stereo partly drawn) [Lu-177-INER-FAPI-1.23, metal not drawn]	10.54	8.89	3.49	6.58	5.96	3.23
